Experimental findings from US20170212130A1 (ROCKEFELLER UNIVERSITY, published 2017) are described below.

Read-outs that look alike come from different tables or passages of the source.

Test [1] addresses T1, mCherry (Discosoma).
T1 construct: Immunogen is mCherry-His6; SPR says recombinant mCherry; also called recombinant mCherry-His6; Discosoma mCherry
Nature of the test: SPR, mCherry immobilized, Langmuir fit; unit inferred. For orientation: Surface plasmon resonance follows binding to a sensor surface in real time, without labels.

In test [2] the target is T1, mCherry. Nature of the test: label under gel lane; legend: in vitro Kd for mCherry by SPR.
Test [3] deals with T2, DsRed (Discosoma sp., UniProt Q9U6Y8 1-225).
T2 construct: Recombinant fluorescent protein; construct not described; also called standard DsRed; DsRed from Discosoma (Ds)
Nature of the test: bead binding: nanobody-Dynabeads + fluorescent protein, eluate on SDS-PAGE.

For test [4], the target named is T3, GFP-His6 (eGFP) (Aequorea victoria, UniProt P42212 2-238 = GFP).
T3 construct: SPR and bead assays speak only of recombinant GFP or eGFP; also called recombinant GFP; A. victoria (Av) GFP
Described as above.

The target in test [5] is T1, mCherry. Nature of the test: SPR, mCherry immobilized.
The target in test [6] is T2, DsRed. Nature of the test: bead binding: nanobody-Dynabeads + fluorescent protein, eluate on SDS-PAGE. The source holds these as a separate data set.
For test [7], the target named is T3, GFP-His6 (eGFP). Nature of the test: method not named in the sentence (in vitro Kd by SPR per FIG. 3 legend).
Test [8] addresses T3, GFP-His6 (eGFP). Nature of the test: label under gel lane; legend: in vitro Kd for GFP by SPR.
Test [9] addresses T3, GFP-His6 (eGFP). Nature of the test: SPR, GFP immobilized.
The target of test [10] is T3, GFP-His6 (eGFP). Nature of the test: label under gel lane; legend: in vitro Kd for GFP by SPR. This is another data set of the same source.
Test [11] deals with T3, GFP-His6 (eGFP). Nature of the test: SPR, GFP immobilized, Langmuir fit; no unit printed [continued].
The target in another test is T4, GFPuv (Aequorea victoria, UniProt P42212 1-229 = GFP, limits assumed).
T4 construct: 15N-labeled for NMR; also called GFPuv variant; 15N-labeled GFPuv
Nature of the test: NMR, 15N-1H HSQC of 15N-GFPuv with 1-1.2 molar excess of LaG.

Test [12] has as its target T3, GFP-His6 (eGFP). Nature of the test: SPR, GFP immobilized, Langmuir fit; unit inferred.
Test [13] has as its target T3, GFP-His6 (eGFP). Nature of the test: SPR, GFP immobilized, Langmuir fit; no unit printed [continued]. This is another data set of the same source.
Test [14] concerns the target T5, GFP-His6 (eGFP) (Aequorea victoria, UniProt P42212 2-238 = GFP). Nature of the test: SPR, GFP immobilized; reference LaG-16 or LaG-2 alone.
Test [15] has as its target T5, GFP-His6 (eGFP). Nature of the test: SPR, GFP immobilized.
Test [16] deals with T3, GFP-His6 (eGFP). Nature of the test: bead binding assay (footnote 1).
The target in test [17] is T3, GFP-His6 (eGFP). Nature of the test: equilibrium bead binding: LaG-Dynabeads + 0.8-400 nM GFP, Coomassie band density fit.

T2 sequence (Q9U6Y8 whole entry): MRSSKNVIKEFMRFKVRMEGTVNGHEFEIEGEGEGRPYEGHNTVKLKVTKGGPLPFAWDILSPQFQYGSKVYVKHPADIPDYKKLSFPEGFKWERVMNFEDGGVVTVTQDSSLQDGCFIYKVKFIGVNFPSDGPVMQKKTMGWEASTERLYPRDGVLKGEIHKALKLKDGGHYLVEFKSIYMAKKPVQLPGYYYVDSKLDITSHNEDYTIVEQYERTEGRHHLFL

B1: LaM-1 (VHH)
VHH: QVQLVESGGGLVQAGDSLRLSCAASGRTFENYAMGWFRQAPGKEREFVGAVSWGGGRTYYADNVKGRFTISRDNAKKNTVYLQMNSLKPEDTAVYYCAAKSVLTIATMRVPDEYNYWGQGTQVTVS
As a reminder, the Kd is the equilibrium constant for the complex coming apart. On to B1, for which the Kd with mCherry [1], with mCherry [2] and with mCherry [5] was 22 nM each time. The binding result with DsRed [3] and in the test with GFP-His6 (eGFP) [4] was “no binding” in each case.

B2: LaG-41 (VHH)
VHH: DVQLVESGGGLVQAGGSLRLSCAASGPTGAMAWFRQAPGKEREFVGGISGSETDTYYVDSVKGRFTVDRDNVKNTVYLQMNSLKPEDTAVYYCAARRRITLFTSRTDYDFWGRGTQVTV
For B2, the binding result with DsRed [6] was “no binding”. Moreover, the Kd in the test with GFP-His6 (eGFP) [7] is 0.9 nM.

B3: LaG-24 (VHH)
VHH: DVQLVESGGGLVQPGGSLRLSCAASGEIASIIAIGWYRQAPGKQRESVALITRSGMITYGDSAQGRFTISRDDAKNTVYLHMDDLVPEDTAVYYCNAKKVSFGDYWGQGTQVTVS
For the molecule B3, the dissociation constant Kd came out at 35 nM with GFP-His6 (eGFP) [8], 41 nM in the test with GFP-His6 (eGFP) [9], 35 nM in the test with GFP-His6 (eGFP) [10] and 41 nM with GFP-His6 (eGFP) [11]. Further, the binding result with DsRed [6] and with GFPuv was “no binding” in each case.

B4: LaG-9 (VHH)
VHH: DVQLVESGGGLVQAGGSLRLSCAASGRTFSTSAMGWFRQAPGKEREFVARITWSAGYTAYSDSVKGRFTISRDKAKNTVYLQMNSLKPEDTAVYYCASRSAGYSSSLTRREDYAYWGQGTQVTVS
With B4, the Kd in the test with GFP-His6 (eGFP) [8], in the test with GFP-His6 (eGFP) [12], with GFP-His6 (eGFP) [9] and in the test with GFP-His6 (eGFP) [10] was 3.5 nM throughout. Further, the binding result with DsRed [6] is “no binding”.

B5: LaM-6 (VHH)
VHH: QVQLVESGGGLVQAGGSLRLSCVASGSAPSFFAMAWYRQSPGNERELVAALSSLGSTNYADSVKGRFTISMDNAKNTVYLQMNNVNAEDTAVYYCAAGDFHSCYARKSCDYWGQGTQVTVS
Take B5: the Kd in the test with mCherry [1], in the test with mCherry [2] and with mCherry [5] was 0.26 nM each time. Moreover, the binding result with DsRed [3] and with GFP-His6 (eGFP) [4] was “no binding” each time.

B6: LaM-8 (VHH)
VHH: QVQLVESGGGLVQAGGSLRLSCAVSGRPFSEYNLGWFRQAPGKEREFVARIRSSGTTVYTDSVKGRFSASRDNAKNMGYLQLNSLEPEDTAVYYCAMSRVDTDSPAFYDYWGQGTQVTVST
As for B6, the Kd with mCherry [1], in the test with mCherry [2] and in the test with mCherry [5] was 63 nM throughout. Further, the binding result with DsRed [3] and with GFP-His6 (eGFP) [4] was “no binding” in each case.

B7: LaG-43 (VHH)
VHH: DVQLVESGGGLVQPGGSLRLSCEASGGAFSTVAMGWFRQAPGKEREFVGAITWTAGSTYYADSAKGRFTISRDNAKNTVHLQMNSLKPEDTAVYYCAQRVRGFFGPLRTTPSWYEYWGQGTQVTVS
With B7, the Kd with GFP-His6 (eGFP) [8] is 13 nM; in the test with GFP-His6 (eGFP) [9], 11 nM; in the test with GFP-His6 (eGFP) [13], 11 nM.

B8: LaG16-LaG2 fusion with a flexible glycine-rich linker (G4S) (other)
chain: MAQVQLVESGGRLVQAGDSLRLSCAASGRTFSTSAMAWFRQAPGREREFVAAITWTVGNTILGDSVKGRFTISRDRAKNTVDLQMDNLEPEDTAVYYCSARSRGYVLSVLRSVDSYDYWGQGTQVTVSGGGGSMAQVQLVESGGGLVQAGGSLRLSCAASGRTFSNYAMGWFRQAPGKEREFVAAISWTGVSTYYADSVKGRFTISRDNDKNTVYVQMNSLIPEDTAIYYCAAVRARSFSDTYSRVNEYDYWGQGTQVTV
As for B8, the “fold lower Kd than either LaG alone” value in the test with GFP-His6 (eGFP) [14] is ~20 fold. In the test with GFP-His6 (eGFP) [15], this molecule returned a Kd of 0.036 nM.

B9: LaG-2 (VHH)
VHH: QVQLVESGGGLVQAGGSLRLSCAASGRTFSNYAMGWFRQAPGKEREFVAAISWTGVSTYYADSVKGRFTISRDNDKNTVYVQMNSLIPEDTAIYYCAAVRARSFSDTYSRVNEYDYWGQGTQVTV
notes: that range is inconsistent in itself; not shown: PreScission Protease cleavage site and C-terminal 6xHis tag
For the molecule B9, the Kd came to 19 nM with GFP-His6 (eGFP) [16], 16 nM with GFP-His6 (eGFP) [9] and 19 nM with GFP-His6 (eGFP) [17]. Moreover, the binding result with DsRed [6] is listed as “no binding”.

B10: LaG41-LaG2 (G4S) (bispecific antibody)
single-chain fusion of two VHH: MADVQLVESGGGLVQAGGSLRLSCAASGPTGAMAWFRQAPGKEREFVGGISGSETDTYYVDSVKGRFTVDRDNVKNTVYLQMNSLKPEDTAVYYCAARRRITLFTSRTDYDFWGRGTQVTVGGGGSGGGGSGGGGSMAQVQLVESGGGLVQAGGSLRLSCAASGRTFSNYAMGWFRQAPGKEREFVAAISWTGVSTYYADSVKGRFTISRDNDKNTVYVQMNSLIPEDTAIYYCAAVRARSFSDTYSRVNEYDYWGQGTQVTV
notes: Member of the group m24; also called LaG41-LaG2 G4S Dimer
For B10, the Kd in the test with GFP-His6 (eGFP) [9] and in the test with GFP-His6 (eGFP) [13] was 0.15 nM in each case.
